Experimental data as given in EP0672680A1.
Square brackets hold non-standard residues; d marks the D form.

Biological target: bovine lung-derived ANP receptor (bovine)
Experiment: competition radioligand binding: displacement of 125I-rat ANP from bovine lung membrane fraction, filter assay

Chain of bovine lung-derived ANP receptor (bovine) (P10730 42-537): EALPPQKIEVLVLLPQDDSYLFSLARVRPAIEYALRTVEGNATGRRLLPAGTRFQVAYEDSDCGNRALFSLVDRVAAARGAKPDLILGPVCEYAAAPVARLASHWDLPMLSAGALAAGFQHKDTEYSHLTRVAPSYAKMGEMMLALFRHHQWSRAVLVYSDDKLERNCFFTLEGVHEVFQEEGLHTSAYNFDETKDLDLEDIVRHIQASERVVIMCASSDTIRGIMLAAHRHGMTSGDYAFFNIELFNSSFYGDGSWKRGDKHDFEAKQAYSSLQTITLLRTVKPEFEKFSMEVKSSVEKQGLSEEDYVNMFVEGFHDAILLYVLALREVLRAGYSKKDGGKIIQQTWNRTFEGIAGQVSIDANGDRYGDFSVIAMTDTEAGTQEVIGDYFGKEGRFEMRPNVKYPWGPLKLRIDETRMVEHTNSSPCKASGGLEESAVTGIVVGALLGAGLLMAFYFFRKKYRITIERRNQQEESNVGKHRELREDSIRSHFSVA

B1: compound (j) (H-Phe-Gly-Gly-D-Arg-Ile-Asp-D-Arg-Ile-NH2) (peptide)
peptide: H-FGG[dR]ID[dR]I-NH2
SMILES: CC[C@H](C)[C@H](NC(=O)[C@@H](CCCNC(=N)N)NC(=O)[C@H](CC(=O)O)NC(=O)[C@@H](NC(=O)[C@@H](CCCNC(=N)N)NC(=O)CNC(=O)CNC(=O)[C@@H](N)Cc1ccccc1)[C@@H](C)CC)C(N)=O
With B1 the IC50 was 5400 nM.

B2: compound (i) (H-Phe-Gly-Gly-D-Arg-Ile-Asp-Arg-Ile-NH2) (peptide)
peptide: H-FGG[dR]IDRI-NH2
SMILES: CC[C@H](C)[C@H](NC(=O)[C@H](CCCNC(=N)N)NC(=O)[C@H](CC(=O)O)NC(=O)[C@@H](NC(=O)[C@@H](CCCNC(=N)N)NC(=O)CNC(=O)CNC(=O)[C@@H](N)Cc1ccccc1)[C@@H](C)CC)C(N)=O
B2 gave an IC50 of 210 nM.
